Reference: article PMC12102759 (2025)

B1: SH3BP2 peptide 410-425 (SH3 domain-binding protein 2), 16-mer library wild type / TNKS ANK (TNKS 12 ANK repeats, residues 174-649) (parent complex)
chain 1: LPHLQRSPPDGQSFRS
chain 2: TGVPAVSGALRELLEACRNGDVSRVKRLVDAANVNAKDMAGRKSSPLHFAAGFGRKDVVEHLLQMGANVHARDDGGLIPLHNACSFGHAEVVSLLLCQGADPNARDNWNYTPLHEAAIKGKIDVCIVLLQHGADPNIRNTDGKSALDLADPSAKAVLTGEYKKDELLEAARSGNEEKLMALLTPLNVNCHASDGRKSTPLHLAAGYNRVRIVQLLLQHGADVHAKDKGGLVPLHNACSYGHYEVTELLLKHGACVNAMDLWQFTPLHEAASKNRVEVCSLLLSHGADPTLVNCHGKSAVDMAPTPELRERLTYEFKGHSLLQAAREADLAKVKKTLALEIINFKQPQSHETALHCAVASLHPKRKQVTELLLRKGANVNEKNKDFMTPLHVAAERAHNDVMEVLHKHGAKMNALDTLGQTALHRAALAGHLQTCRLLLSYGSDPSIISLQGFTAAQMGNEAVQQILSESTPIRTSD

Variants of: B1
Test: proteomic peptide phage display deep mutational scan (ProP-PD DMS): M13 P8 16-mer library selected against immobilised GST-tagged bait for four days (rounds), NGS of the eluted pools per day and pseudo-replica; bait immobilised on MaxiSorp plates (10 µg), library pre-cleared on GST, 2 h binding at 4 °C, five washes; one round per day, days 1-4; value from days 2 and 3

Compared with chain 1 Q5E, chain 1 Q5S is lower in screen value: 0.000543 average fractional NGS count over selection days 2 and 3 (reads of this peptide / all reads for the bait, averaged over … for the first, 0.000417 average fractional NGS count over selection days 2 and 3 (reads of this peptide / all reads for the bait, averaged over … for the second.

First: chain 1 Q5V
Second: chain 1 Q5P
The screen value of the first is higher: 0.001 average fractional NGS count over selection days 2 and 3 (reads of this peptide / all reads for the bait, averaged over … for the first, 0.000217 average fractional NGS count over selection days 2 and 3 (reads of this peptide / all reads for the bait, averaged over … for the second.

First: chain 1 Q5D
Second: chain 1 Q5K
The screen value of the first is higher: 0.00109 average fractional NGS count over selection days 2 and 3 (reads of this peptide / all reads for the bait, averaged over … for the first, 0.0003 average fractional NGS count over selection days 2 and 3 (reads of this peptide / all reads for the bait, averaged over … for the second.

First: chain 1 Q5T
Second: chain 1 S13L
The screen value of the first is higher: 0.00193 average fractional NGS count over selection days 2 and 3 (reads of this peptide / all reads for the bait, averaged over … for the first, 0.00144 average fractional NGS count over selection days 2 and 3 (reads of this peptide / all reads for the bait, averaged over … for the second.

Compared with chain 1 S13T, chain 1 S13D is lower in screen value: 0.00243 average fractional NGS count over selection days 2 and 3 (reads of this peptide / all reads for the bait, averaged over … for the first, 0.00033 average fractional NGS count over selection days 2 and 3 (reads of this peptide / all reads for the bait, averaged over … for the second.

Going from chain 1 S13G to chain 1 S13M, the screen value rises from 0.00038 average fractional NGS count over selection days 2 and 3 (reads of this peptide / all reads for the bait, averaged over … to 0.00197 average fractional NGS count over selection days 2 and 3 (reads of this peptide / all reads for the bait, averaged over ….

Compared with chain 1 S13Y, chain 1 S13Q is higher in screen value: 0.00204 average fractional NGS count over selection days 2 and 3 (reads of this peptide / all reads for the bait, averaged over … for the first, 0.00224 average fractional NGS count over selection days 2 and 3 (reads of this peptide / all reads for the bait, averaged over … for the second.

Compared with chain 1 D10I, chain 1 D10Q is higher in screen value: 0.000221 average fractional NGS count over selection days 2 and 3 (reads of this peptide / all reads for the bait, averaged over … for the first, 0.00104 average fractional NGS count over selection days 2 and 3 (reads of this peptide / all reads for the bait, averaged over … for the second.

Going from chain 1 D10T to chain 1 D10E, the screen value rises from 0.000156 average fractional NGS count over selection days 2 and 3 (reads of this peptide / all reads for the bait, averaged over … to 0.00381 average fractional NGS count over selection days 2 and 3 (reads of this peptide / all reads for the bait, averaged over ….

First: chain 1 L4E
Second: chain 1 L4D
The screen value of the first is lower: 0.00039 average fractional NGS count over selection days 2 and 3 (reads of this peptide / all reads for the bait, averaged over … for the first, 0.00145 average fractional NGS count over selection days 2 and 3 (reads of this peptide / all reads for the bait, averaged over … for the second.

Compared with chain 1 L4A, chain 1 P8S is lower in screen value: 0.00506 average fractional NGS count over selection days 2 and 3 (reads of this peptide / all reads for the bait, averaged over … for the first, 0.000677 average fractional NGS count over selection days 2 and 3 (reads of this peptide / all reads for the bait, averaged over … for the second.

First: chain 1 P8M
Second: chain 1 P8L
The screen value of the first is higher: 0.00437 average fractional NGS count over selection days 2 and 3 (reads of this peptide / all reads for the bait, averaged over … for the first, 0.00187 average fractional NGS count over selection days 2 and 3 (reads of this peptide / all reads for the bait, averaged over … for the second.

Compared with chain 1 P8I, chain 1 P8K is lower in screen value: 0.00231 average fractional NGS count over selection days 2 and 3 (reads of this peptide / all reads for the bait, averaged over … for the first, 0.000693 average fractional NGS count over selection days 2 and 3 (reads of this peptide / all reads for the bait, averaged over … for the second.

Going from chain 1 P8Q to chain 1 P8A, the screen value rises from 0.00268 average fractional NGS count over selection days 2 and 3 (reads of this peptide / all reads for the bait, averaged over … to 0.00935 average fractional NGS count over selection days 2 and 3 (reads of this peptide / all reads for the bait, averaged over ….

Compared with chain 1 P8E, chain 1 P8Y is lower in screen value: 0.00169 average fractional NGS count over selection days 2 and 3 (reads of this peptide / all reads for the bait, averaged over … for the first, 0.000667 average fractional NGS count over selection days 2 and 3 (reads of this peptide / all reads for the bait, averaged over … for the second.

Compared with chain 1 Q12Y, chain 1 Q12A is higher in screen value: 0.000794 average fractional NGS count over selection days 2 and 3 (reads of this peptide / all reads for the bait, averaged over … for the first, 0.00503 average fractional NGS count over selection days 2 and 3 (reads of this peptide / all reads for the bait, averaged over … for the second.

First: chain 1 Q12I
Second: chain 1 Q12H
The screen value of the first is lower: 0.000382 average fractional NGS count over selection days 2 and 3 (reads of this peptide / all reads for the bait, averaged over … for the first, 0.0118 average fractional NGS count over selection days 2 and 3 (reads of this peptide / all reads for the bait, averaged over … for the second.

Going from chain 1 Q12L to chain 1 Q12K, the screen value falls from 0.00741 average fractional NGS count over selection days 2 and 3 (reads of this peptide / all reads for the bait, averaged over … to 0.000431 average fractional NGS count over selection days 2 and 3 (reads of this peptide / all reads for the bait, averaged over ….

Going from chain 1 Q12N to chain 1 H3E, the screen value falls from 0.00115 average fractional NGS count over selection days 2 and 3 (reads of this peptide / all reads for the bait, averaged over … to 0.000323 average fractional NGS count over selection days 2 and 3 (reads of this peptide / all reads for the bait, averaged over ….

Compared with chain 1 H3P, chain 1 H3A is lower in screen value: 0.000298 average fractional NGS count over selection days 2 and 3 (reads of this peptide / all reads for the bait, averaged over … for the first, 0.000153 average fractional NGS count over selection days 2 and 3 (reads of this peptide / all reads for the bait, averaged over … for the second.

First: chain 1 H3T
Second: chain 1 H3L
The screen value of the first is lower: 0.000309 average fractional NGS count over selection days 2 and 3 (reads of this peptide / all reads for the bait, averaged over … for the first, 0.000556 average fractional NGS count over selection days 2 and 3 (reads of this peptide / all reads for the bait, averaged over … for the second.

Going from chain 1 H3G to chain 1 H3Y, the screen value rises from 0.000244 average fractional NGS count over selection days 2 and 3 (reads of this peptide / all reads for the bait, averaged over … to 0.00044 average fractional NGS count over selection days 2 and 3 (reads of this peptide / all reads for the bait, averaged over ….

Compared with chain 1 H3V, chain 1 L1G is lower in screen value: 0.00187 average fractional NGS count over selection days 2 and 3 (reads of this peptide / all reads for the bait, averaged over … for the first, 0.000775 average fractional NGS count over selection days 2 and 3 (reads of this peptide / all reads for the bait, averaged over … for the second.

Compared with chain 1 L1I, chain 1 L1Q is higher in screen value: 0.00049 average fractional NGS count over selection days 2 and 3 (reads of this peptide / all reads for the bait, averaged over … for the first, 0.00289 average fractional NGS count over selection days 2 and 3 (reads of this peptide / all reads for the bait, averaged over … for the second.

Compared with chain 1 L1T, chain 1 L1D is higher in screen value: 0.0011 average fractional NGS count over selection days 2 and 3 (reads of this peptide / all reads for the bait, averaged over … for the first, 0.00232 average fractional NGS count over selection days 2 and 3 (reads of this peptide / all reads for the bait, averaged over … for the second.

Going from chain 1 L1M to chain 1 L1P, the screen value falls from 0.00036 average fractional NGS count over selection days 2 and 3 (reads of this peptide / all reads for the bait, averaged over … to 0.000357 average fractional NGS count over selection days 2 and 3 (reads of this peptide / all reads for the bait, averaged over ….

First: chain 1 L1W
Second: chain 1 L1R
The screen value of the first is higher: 0.000782 average fractional NGS count over selection days 2 and 3 (reads of this peptide / all reads for the bait, averaged over … for the first, 0.000257 average fractional NGS count over selection days 2 and 3 (reads of this peptide / all reads for the bait, averaged over … for the second.

Going from chain 1 F14Y to chain 1 F14V, the screen value falls from 0.00865 average fractional NGS count over selection days 2 and 3 (reads of this peptide / all reads for the bait, averaged over … to 0.000585 average fractional NGS count over selection days 2 and 3 (reads of this peptide / all reads for the bait, averaged over ….

Going from chain 1 F14P to chain 1 F14W, the screen value rises from 0.000325 average fractional NGS count over selection days 2 and 3 (reads of this peptide / all reads for the bait, averaged over … to 0.00225 average fractional NGS count over selection days 2 and 3 (reads of this peptide / all reads for the bait, averaged over ….

Compared with chain 1 P2E, chain 1 P2S is lower in screen value: 0.000462 average fractional NGS count over selection days 2 and 3 (reads of this peptide / all reads for the bait, averaged over … for the first, 0.000402 average fractional NGS count over selection days 2 and 3 (reads of this peptide / all reads for the bait, averaged over … for the second.

First: chain 1 P2F
Second: chain 1 P2V
The screen value of the first is higher: 0.00201 average fractional NGS count over selection days 2 and 3 (reads of this peptide / all reads for the bait, averaged over … for the first, 0.00125 average fractional NGS count over selection days 2 and 3 (reads of this peptide / all reads for the bait, averaged over … for the second.

First: chain 1 P2A
Second: chain 1 P2I
The screen value of the first is lower: 0.00048 average fractional NGS count over selection days 2 and 3 (reads of this peptide / all reads for the bait, averaged over … for the first, 0.000822 average fractional NGS count over selection days 2 and 3 (reads of this peptide / all reads for the bait, averaged over … for the second.

First: chain 1 P2G
Second: chain 1 P2N
The screen value of the first is lower: 0.000225 average fractional NGS count over selection days 2 and 3 (reads of this peptide / all reads for the bait, averaged over … for the first, 0.000461 average fractional NGS count over selection days 2 and 3 (reads of this peptide / all reads for the bait, averaged over … for the second.

Going from chain 1 P2Q to chain 1 S7T, the screen value rises from 0.000644 average fractional NGS count over selection days 2 and 3 (reads of this peptide / all reads for the bait, averaged over … to 0.00126 average fractional NGS count over selection days 2 and 3 (reads of this peptide / all reads for the bait, averaged over ….

Going from chain 1 S7K to chain 1 S7I, the screen value falls from 0.00104 average fractional NGS count over selection days 2 and 3 (reads of this peptide / all reads for the bait, averaged over … to 0.000719 average fractional NGS count over selection days 2 and 3 (reads of this peptide / all reads for the bait, averaged over ….

Compared with chain 1 S7L, chain 1 S7E is higher in screen value: 0.00604 average fractional NGS count over selection days 2 and 3 (reads of this peptide / all reads for the bait, averaged over … for the first, 0.00893 average fractional NGS count over selection days 2 and 3 (reads of this peptide / all reads for the bait, averaged over … for the second.

First: chain 1 S7D
Second: chain 1 S7P
The screen value of the first is lower: 0.000477 average fractional NGS count over selection days 2 and 3 (reads of this peptide / all reads for the bait, averaged over … for the first, 0.00153 average fractional NGS count over selection days 2 and 3 (reads of this peptide / all reads for the bait, averaged over … for the second.

With chain 1 P9G the screen value was 0.000695 average fractional NGS count over selection days 2 and 3 (reads of this peptide / all reads for the bait, averaged over ….
